# US20190194304A1 (STICHTING SANQUIN BLOEDVOORZIENING, published 2019)
# T1: recombinant FH CCP 15-18 (human, UniProt P08603 868-1104, 125I label)
# T1 construct: domain: CCP 15-18; also called recombinant FH CCP domains 15-18
# T1 sequence (looked up): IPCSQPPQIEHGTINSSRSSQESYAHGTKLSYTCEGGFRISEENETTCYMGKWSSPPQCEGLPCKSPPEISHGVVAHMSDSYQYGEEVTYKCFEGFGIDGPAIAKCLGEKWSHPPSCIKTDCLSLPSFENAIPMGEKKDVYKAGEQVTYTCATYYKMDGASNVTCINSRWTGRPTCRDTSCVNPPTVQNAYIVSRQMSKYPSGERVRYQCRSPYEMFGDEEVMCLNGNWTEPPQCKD
# T2: recombinant FH CCP 15-19 (human, UniProt P08603 868-1165, 125I label)
# T2 construct: domain: CCP 15-19; also called recombinant FH CCP domains 15-19
# T2 sequence (looked up): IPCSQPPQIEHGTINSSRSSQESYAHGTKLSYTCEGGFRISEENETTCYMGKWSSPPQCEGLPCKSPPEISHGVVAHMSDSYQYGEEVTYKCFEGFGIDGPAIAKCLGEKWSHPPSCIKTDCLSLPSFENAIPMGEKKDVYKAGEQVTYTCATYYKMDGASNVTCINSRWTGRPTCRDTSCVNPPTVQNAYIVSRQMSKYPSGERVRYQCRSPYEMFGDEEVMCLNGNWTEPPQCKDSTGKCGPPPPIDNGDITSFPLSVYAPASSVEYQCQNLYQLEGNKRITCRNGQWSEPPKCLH
# T3: recombinant FH CCP 18-20 (human, UniProt P08603 1046-1231, 125I label)
# T3 construct: domain: CCP 18-20; also called recombinant FH CCP domains 18-20
# T3 sequence (looked up): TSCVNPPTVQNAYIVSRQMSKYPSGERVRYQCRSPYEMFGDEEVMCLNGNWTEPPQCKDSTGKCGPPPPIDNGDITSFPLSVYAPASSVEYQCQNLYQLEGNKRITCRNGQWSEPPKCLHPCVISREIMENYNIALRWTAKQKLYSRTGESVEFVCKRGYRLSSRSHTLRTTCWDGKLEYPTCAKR
# B1: human factor H (other, UniProt P08603 19-1231, looked up)
# chain: EDCNELPPRRNTEILTGSWSDQTYPEGTQAIYKCRPGYRSLGNVIMVCRKGEWVALNPLRKCQKRPCGHPGDTPFGTFTLTGGNVFEYGVKAVYTCNEGYQLLGEINYRECDTDGWTNDIPICEVVKCLPVTAPENGKIVSSAMEPDREYHFGQAVRFVCNSGYKIEGDEEMHCSDDGFWSKEKPKCVEISCKSPDVINGSPISQKIIYKENERFQYKCNMGYEYSERGDAVCTESGWRPLPSCEEKSCDNPYIPNGDYSPLRIKHRTGDEITYQCRNGFYPATRGNTAKCTSTGWIPAPRCTLKPCDYPDIKHGGLYHENMRRPYFPVAVGKYYSYYCDEHFETPSGSYWDHIHCTQDGWSPAVPCLRKCYFPYLENGYNQNYGRKFVQGKSIDVACHPGYALPKAQTTVTCMENGWSPTPRCIRVKTCSKSSIDIENGFISESQYTYALKEKAKYQCKLGYVTADGETSGSITCGKDGWSAQPTCIKSCDIPVFMNARTKNDFTWFKLNDTLDYECHDGYESNTGSTTGSIVCGYNGWSDLPICYERECELPKIDVHLVPDRKKDQYKVGEVLKFSCKPGFTIVGPNSVQCYHFGLSPDLPICKEQVQSCGPPPELLNGNVKEKTKEEYGHSEVVEYYCNPRFLMKGPNKIQCVDGEWTTLPVCIVEESTCGDIPELEHGWAQLSSPPYYYGDSVEFNCSESFTMIGHRSITCIHGVWTQLPQCVAIDKLKKCKSSNLIILEEHLKNKKEFDHNSNIRYRCRGKEGWIHTVCINGRWDPEVNCSMAQIQLCPPPPQIPNSHNMTTTLNYRDGEKVSVLCQENYLIQEGEEITCKDGRWQSIPLCVEKIPCSQPPQIEHGTINSSRSSQESYAHGTKLSYTCEGGFRISEENETTCYMGKWSSPPQCEGLPCKSPPEISHGVVAHMSDSYQYGEEVTYKCFEGFGIDGPAIAKCLGEKWSHPPSCIKTDCLSLPSFENAIPMGEKKDVYKAGEQVTYTCATYYKMDGASNVTCINSRWTGRPTCRDTSCVNPPTVQNAYIVSRQMSKYPSGERVRYQCRSPYEMFGDEEVMCLNGNWTEPPQCKDSTGKCGPPPPIDNGDITSFPLSVYAPASSVEYQCQNLYQLEGNKRITCRNGQWSEPPKCLHPCVISREIMENYNIALRWTAKQKLYSRTGESVEFVCKRGYRLSSRSHTLRTTCWDGKLEYPTCAKR
# notes: mature; Purified plasma FH (CompTech) in SPR, bridging ELISA and hybridoma screening (biotinylated); FH of healthy donor or aHUS patient serum in the C3b ELISA and the functional assays. aHUS sera carry a heterozygous mutation in CCP 20 that is not specified; also called FH; human purified factor H
# B2: monoclonal antibody anti-FH.07 (murine IgG1) (antibody, V domains shown)
# VH: QVQLQQSGPGLVQPSQSLSITCTVSDFSLARYGVHWIRQSPGKGLEWLGVIWSGGTADYNAAFISRLNINKDNSKSQVFFKMNSLQANDTAIYYCARNFGNYAVDYWGQGTS
# VL: QIVLSQSPTFLSASPGEKVTVTCRASSSVKYMHWYQQKPGASPKPWIFATSNLASGVPARFSGSGSGTSYSLTISRVEAEDAATYYCQQWSIIPPTFGNGTKLELK
# notes: Captured with rat anti-mouse kappa RM19; also called intact IgG; intact antibody
# B3: F(ab′)2 fragments of anti-FH.07 (other)
# VH: B2 VH
# VL: B2 VL
# notes: also called anti-FH.07 F(ab′)2
# B4: Fab′ fragments of anti-FH.07 (Fab, V domains shown)
# VH: B2 VH
# VL: B2 VL
# modifications: free thiol groups blocked with iodoacetamide after reduction with dithioerythritol
# notes: also called anti-FH.07 Fab′
# Experiments:
# C3b [1] = target: T4, C3b (UniProt P01024 23-667; P01024 749-1663, limits assumed); experiment: SPR, 0.5 µM FH with anti-FH.07 Fab′ (2 to 1 molar ratio) over immobilised C3b
# T4 construct: domain: C3b; C3b has two disulfide-linked chains (beta and alpha′); also called purified C3b
# Description: (§1) Binding of FH to C3b, iC3b or C3d in the presence of the anti-FH moAbs was determined by surface plasmon resonance using a Biacore T3000 instrument (GE Healthcare, Little Chalfont, UK). Purified C3b, iC3b or C3d (Complement Technologies) was immobilized onto one of three flow cells of a CM5 Biacore Sensor Chip (GE Healthcare) using standard […] coupling. The remaining flow cell was used as reference surface and prepared by performing a coupling reaction without the addition of any protein. A response of 4400 response units (RUs), 4180 RUs and 1470 RUs was obtained after coupling with C3b, iC3b and C3d, respectively. SPR experiments were performed at 25° C. using a flow rate of 10 μl/min and in 10 mM HEPES-buffered 150 mM saline, pH 7.4, with 0.05% (w/v) Tween-20 (HBS-P). Duplicate injections of 0.5 μM FH with a contact time of 210 seconds were performed to obtain a reference binding signal for FH on each surface. […]
# (§2) In addition, SPR experiments were conducted to study the interaction of FH with C3b, iC3b and C3d in the absence and presence of […] Fab′ fragments. Briefly, three flow cells of a CM5 Biacore Sensor chip were coated with either C3b, iC3b or C3d and interactions of FH with these surfaces in the absence or presence of anti-FH moAb was determined on a Biacore T3000 system.
# iC3b = target: T5, iC3b (UniProt P01024 23-667; P01024 749-1303; P01024 1321-1663, limits assumed); experiment: SPR, 0.5 µM FH with anti-FH.07 Fab′ (2 to 1 molar ratio) over immobilised iC3b
# T5 construct: domain: iC3b; also called purified iC3b
# Description: as §1, §2
# human factor H = target: B1; experiment: bridging ELISA: FH coat, biotinylated FH for detection
# Description: One possible mechanism for the observed increased FH inhibitory function upon incubation with anti-FH.07 is multimerization of FH by crosslinking via the antibody, thereby increasing the avidity of FH for the surface. To test this possibility, we generated monovalent Fab′ fragments of anti-FH.07. If crosslinking of FH is the cause of the observed increased FH function, monovalent Fab′ fragments are expected to show no potentiating effect. With a bridging ELISA we first checked whether the generated Fab′ fragments were indeed completely monovalent and not capable to crosslink FH molecules. To this end an ELISA plate was coated with FH and biotinylated FH was used for detection. […] The anti-FH.07 F(ab′)₂ and Fab′ fragments were then tested in the C3 deposition assays on zymosan and LPS coated plates. To our surprise we observed the same potentiating effect of the Fab′ fragments on FH function. […] Therefore we concluded that the effect of anti-FH.07 was not due to crosslinking of FH molecules by the monoclonal antibody.
# recombinant FH CCP 15-18 = target: T1, recombinant FH CCP 15-18; experiment: radioimmunoassay, moAb on RM-19 sepharose, 125I-labelled fragment
# Description: (§3) Reactivity of FH specific moAbs was tested with recombinant human FH fragments composed of multiple CCPs. To this end, fifty microliter of 100 μg/ml anti-FH moAbs was mixed with 0.5 ml of 2 mg/ml RM-19 coupled-sepharose (25 μg moAb per 1 mg CnBr-Sepharose). The FH fragments were labelled with ¹²⁵I and 100 μl (20000 c/30 sec) was added to each sample followed by incubation O/N. The assay was performed in PBS with 0.1% (w/v) Tween-20 and 0.1% (w/v) BSA (PTB). Samples were washed 5 times with PBS with 0.1% (w/v) Tween-20 and counted for 30 seconds. Sepharose bound radioactivity was measured and compared to total input (set to 100%).
# (§4) In order to map the binding site of anti-FH.07, we tested the reactivity of this moAb towards a panel of radiolabeled recombinant CCP domains or purified human FH. Binding of the moAbs was tested in a radioimmunoassay and was related to the input (100%).
# recombinant FH CCP 15-19 = target: T2, recombinant FH CCP 15-19; experiment: as above
# Description: as §3, §4
# recombinant FH CCP 18-20 = target: T3, recombinant FH CCP 18-20; experiment: as above
# Description: as §3, §4
# C3b [2] = target: T4, C3b; experiment: SPR, Fab′ injected without FH over immobilised C3b
# Description: Binding of FH to C3b, iC3b or C3d in the presence of the anti-FH moAbs was determined by surface plasmon resonance using a Biacore T3000 instrument (GE Healthcare, Little Chalfont, UK). Purified C3b, iC3b or C3d (Complement Technologies) was immobilized onto one of three flow cells of a CM5 Biacore Sensor Chip (GE Healthcare) using standard […] coupling. The remaining flow cell was used as reference surface and prepared by performing a coupling reaction without the addition of any protein. A response of 4400 response units (RUs), 4180 RUs and 1470 RUs was obtained after coupling with C3b, iC3b and C3d, respectively. SPR experiments were performed at 25° C. using a flow rate of 10 μl/min and in 10 mM HEPES-buffered 150 mM saline, pH 7.4, with 0.05% (w/v) Tween-20 (HBS-P). Duplicate injections of 0.5 μM FH with a contact time of 210 seconds were performed to obtain a reference binding signal for FH on each surface. After each sample injection a dissociation time of 240 seconds was allowed, using HBS-P as running buffer, followed by a single 30 seconds injection of 1 M NaCl to regenerate the surface.
# To determine the effect of anti-FH.07 without interference of possible cross-linking via the moAb, Fab′ fragments, generated as described above, were used. […]
# T4 sequence (P01024 23-667 limits assumed, chain 1 of 2): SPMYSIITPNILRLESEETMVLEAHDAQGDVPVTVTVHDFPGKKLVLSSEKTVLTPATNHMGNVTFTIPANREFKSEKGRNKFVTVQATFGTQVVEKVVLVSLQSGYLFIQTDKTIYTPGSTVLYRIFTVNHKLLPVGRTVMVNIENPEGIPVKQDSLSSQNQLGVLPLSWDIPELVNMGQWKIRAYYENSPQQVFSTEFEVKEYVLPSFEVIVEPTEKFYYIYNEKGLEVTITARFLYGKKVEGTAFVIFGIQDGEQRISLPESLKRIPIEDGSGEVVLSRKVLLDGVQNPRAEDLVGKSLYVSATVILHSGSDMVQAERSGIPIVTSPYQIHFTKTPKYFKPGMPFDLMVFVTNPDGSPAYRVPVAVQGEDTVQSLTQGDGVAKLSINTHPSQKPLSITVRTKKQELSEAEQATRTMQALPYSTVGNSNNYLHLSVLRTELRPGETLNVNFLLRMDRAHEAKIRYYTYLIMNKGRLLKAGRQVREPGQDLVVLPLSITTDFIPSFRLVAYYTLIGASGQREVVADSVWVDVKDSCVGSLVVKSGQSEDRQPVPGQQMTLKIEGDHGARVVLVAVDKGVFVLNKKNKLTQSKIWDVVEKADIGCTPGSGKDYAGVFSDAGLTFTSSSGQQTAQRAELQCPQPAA
# T4 sequence (P01024 749-1663 limits assumed, chain 2 of 2): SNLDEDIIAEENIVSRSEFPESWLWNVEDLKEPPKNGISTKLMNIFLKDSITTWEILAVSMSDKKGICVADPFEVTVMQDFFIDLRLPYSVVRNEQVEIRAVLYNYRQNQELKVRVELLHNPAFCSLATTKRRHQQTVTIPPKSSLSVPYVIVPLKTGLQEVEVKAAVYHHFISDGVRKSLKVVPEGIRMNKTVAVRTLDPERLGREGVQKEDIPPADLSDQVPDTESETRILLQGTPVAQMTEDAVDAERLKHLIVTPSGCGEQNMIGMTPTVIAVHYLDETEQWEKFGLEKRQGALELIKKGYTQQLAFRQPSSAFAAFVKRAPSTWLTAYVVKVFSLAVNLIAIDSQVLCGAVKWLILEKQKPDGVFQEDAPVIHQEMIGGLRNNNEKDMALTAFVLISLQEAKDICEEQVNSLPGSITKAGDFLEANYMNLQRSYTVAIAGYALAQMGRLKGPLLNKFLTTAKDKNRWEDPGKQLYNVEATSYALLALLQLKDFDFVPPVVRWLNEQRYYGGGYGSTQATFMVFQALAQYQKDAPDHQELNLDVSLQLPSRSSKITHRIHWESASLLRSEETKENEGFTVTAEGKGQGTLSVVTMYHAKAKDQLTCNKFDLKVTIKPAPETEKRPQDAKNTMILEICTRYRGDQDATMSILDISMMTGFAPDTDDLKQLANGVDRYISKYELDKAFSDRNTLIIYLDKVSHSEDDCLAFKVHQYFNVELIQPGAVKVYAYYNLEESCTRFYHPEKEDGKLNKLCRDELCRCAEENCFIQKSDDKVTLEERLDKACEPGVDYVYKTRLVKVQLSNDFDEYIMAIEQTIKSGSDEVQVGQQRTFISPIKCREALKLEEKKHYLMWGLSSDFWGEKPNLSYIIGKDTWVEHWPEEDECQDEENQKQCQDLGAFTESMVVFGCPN
# T5 sequence (P01024 23-667 limits assumed, chain 1 of 3): as the sequence (P01024 23-667 limits assumed, chain 1 of 2) above
# T5 sequence (P01024 749-1303 limits assumed, chain 2 of 3): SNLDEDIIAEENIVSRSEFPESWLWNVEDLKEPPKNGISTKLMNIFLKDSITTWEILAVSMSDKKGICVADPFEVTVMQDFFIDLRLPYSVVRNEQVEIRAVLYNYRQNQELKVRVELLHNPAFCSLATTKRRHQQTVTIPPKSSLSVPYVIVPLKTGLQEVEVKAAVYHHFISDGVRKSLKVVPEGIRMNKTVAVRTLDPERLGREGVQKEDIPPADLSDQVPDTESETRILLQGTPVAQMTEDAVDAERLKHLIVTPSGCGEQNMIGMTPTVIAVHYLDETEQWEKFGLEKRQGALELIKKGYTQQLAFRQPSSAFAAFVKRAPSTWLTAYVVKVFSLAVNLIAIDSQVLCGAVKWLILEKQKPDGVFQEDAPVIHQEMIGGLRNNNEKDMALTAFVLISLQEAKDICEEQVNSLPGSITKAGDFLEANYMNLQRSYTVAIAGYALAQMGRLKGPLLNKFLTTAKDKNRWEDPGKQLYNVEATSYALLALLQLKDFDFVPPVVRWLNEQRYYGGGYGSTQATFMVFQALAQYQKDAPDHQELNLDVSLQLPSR
# T5 sequence (P01024 1321-1663 limits assumed, chain 3 of 3): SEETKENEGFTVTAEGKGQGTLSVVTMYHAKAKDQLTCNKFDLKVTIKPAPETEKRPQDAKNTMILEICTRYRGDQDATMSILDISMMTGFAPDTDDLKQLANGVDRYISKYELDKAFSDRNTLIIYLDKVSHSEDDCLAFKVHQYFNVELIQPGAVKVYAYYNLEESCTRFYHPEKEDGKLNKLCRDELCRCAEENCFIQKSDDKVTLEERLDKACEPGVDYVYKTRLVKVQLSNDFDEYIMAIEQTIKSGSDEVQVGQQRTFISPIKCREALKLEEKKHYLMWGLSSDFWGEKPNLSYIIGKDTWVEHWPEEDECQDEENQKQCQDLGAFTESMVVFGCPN
binder,measurement,setting,value
B1,fold increase of the measured interactions (RU) with anti-FH.07 Fab′ against FH alone,C3b [1],≥ 2 fold
same,fold increase of the measured interactions (RU) with anti-FH.07 Fab′ against FH alone,iC3b,≥ 2 fold
B2,binding result,human factor H,binds
same,binding result,recombinant FH CCP 15-18,binds
same,binding result,recombinant FH CCP 15-19,binds
same,binding result,recombinant FH CCP 18-20,binds
B3,binding result,human factor H,binds
B4,binding result,C3b [2],no binding
